Experimental data from patent US20120316071A1 (published 2012).

Molecular target: T1, Recombinant Human DLL4 (R&D Systems Cat#1506-D4/CF) (human, UniProt Q9NR61 27-524)
T1 construct: also called delta-like protein 4; Delta-like 4
Assay: ECL (MSD) multispot binding assay, immobilised recombinant human DLL4, Fab at 0.04 uM
Method: An 150 μl aliquot of 1% Bovine Serum Albumin (BSA) in Tris-buffered Saline Tween (TBST) was added to each well and allowed to incubate for 30 min at 20° C. followed by washing and tap drying to completely remove any residual solution. Subsequently, a 12.5 μl aliquot of 1% BSA TBST was added to each well followed by the addition of a 12.5 μl aliquot of a purified Fab. The plate was sealed and incubated for 1 hour at 20° C. with shaking
TAG-detection antibody at 25 μl was added to each well and allowed to incubate for 1 hour at 20° C. with shaking. Finally, 15 μl of Read Buffer P with Surfactant (Cat # R92PC-1, Meso Scale Discovery) was added to each well. The electrochemiluminescence was measured using a Sector Imager 2400 (Meso Scale Discovery). Data was analyzed by comparing the ECL signals for an antigen to the blank of each well. A signal to blank ratio of 4 or more was considered a “Hit” Fab.

ECL Signal/Noise	Binder
49.2	Fab VH5-51_IGHD5-18*01>3_IGHJ4*01 G100K/G104T (H:KT) & V3-4_IGLJ1*01 (Fab, V domains shown, Tested as purified Fab made in E. coli; also called H:KT & L:wt; KT double mutant) VH: EVQLVQSGAEVKKPGESLKISCKGSGYSFTSYWIGWVRQMPGKGLEWMGIIYPGDSDTRYSPSFQGQVTISADKSISTAYLQWSSLKASDTAMYYCARRKYSYTYDYFDYWGQGTLVTVSS VL: QTVVTQEPSFSVSPGGTVTLTCGLSSGSVSTSYYPSWYQQTPGQAPRTLIYSTNTRSSGVPDRFSGSILGNKAALTITGAQADDESDYYCVLYMGSGISYVFGTGTKVTVL
53.1	Fab VH5-51_IGHD5-18*01>3_IGHJ4*01 G100K/G104T (H:KT) & V3-4_IGLJ1*01 M94A (Fab, V domains shown, Fab; CH1 (His6/Flag tags, plasmid A) and lambda CL (plasmid E) as for the parent) VH: EVQLVQSGAEVKKPGESLKISCKGSGYSFTSYWIGWVRQMPGKGLEWMGIIYPGDSDTRYSPSFQGQVTISADKSISTAYLQWSSLKASDTAMYYCARRKYSYTYDYFDYWGQGTLVTVSS VL: QTVVTQEPSFSVSPGGTVTLTCGLSSGSVSTSYYPSWYQQTPGQAPRTLIYSTNTRSSGVPDRFSGSILGNKAALTITGAQADDESDYYCVLYAGSGISYVFGTGTKVTVL
21.3	Fab VH5-51_IGHD5-18*01>3_IGHJ4*01 G100K/G104T (H:KT) & V3-4_IGLJ1*01 Y93A (Fab, V domains shown, Fab; CH1 (His6/Flag tags, plasmid A) and lambda CL (plasmid E) as for the parent) VH: EVQLVQSGAEVKKPGESLKISCKGSGYSFTSYWIGWVRQMPGKGLEWMGIIYPGDSDTRYSPSFQGQVTISADKSISTAYLQWSSLKASDTAMYYCARRKYSYTYDYFDYWGQGTLVTVSS VL: QTVVTQEPSFSVSPGGTVTLTCGLSSGSVSTSYYPSWYQQTPGQAPRTLIYSTNTRSSGVPDRFSGSILGNKAALTITGAQADDESDYYCVLAMGSGISYVFGTGTKVTVL
48.5	Fab VH5-51_IGHD5-18*01>3_IGHJ4*01 G100K/G104T (H:KT) & V3-4_IGLJ1*01 V91A (Fab, V domains shown, Fab; CH1 (His6/Flag tags, plasmid A) and lambda CL (plasmid E) as for the parent) VH: EVQLVQSGAEVKKPGESLKISCKGSGYSFTSYWIGWVRQMPGKGLEWMGIIYPGDSDTRYSPSFQGQVTISADKSISTAYLQWSSLKASDTAMYYCARRKYSYTYDYFDYWGQGTLVTVSS VL: QTVVTQEPSFSVSPGGTVTLTCGLSSGSVSTSYYPSWYQQTPGQAPRTLIYSTNTRSSGVPDRFSGSILGNKAALTITGAQADDESDYYCALYMGSGISYVFGTGTKVTVL
32.6	Fab VH5-51_IGHD5-18*01>3_IGHJ4*01 G100K/G104T (H:KT) & V3-4_IGLJ1*01 I98A (Fab, V domains shown, Fab; CH1 (His6/Flag tags, plasmid A) and lambda CL (plasmid E) as for the parent) VH: EVQLVQSGAEVKKPGESLKISCKGSGYSFTSYWIGWVRQMPGKGLEWMGIIYPGDSDTRYSPSFQGQVTISADKSISTAYLQWSSLKASDTAMYYCARRKYSYTYDYFDYWGQGTLVTVSS VL: QTVVTQEPSFSVSPGGTVTLTCGLSSGSVSTSYYPSWYQQTPGQAPRTLIYSTNTRSSGVPDRFSGSILGNKAALTITGAQADDESDYYCVLYMGSGASYVFGTGTKVTVL
34.4	Fab VH5-51_IGHD5-18*01>3_IGHJ4*01 G100K/G104T (H:KT) & V3-4_IGLJ1*01 G95A (Fab, V domains shown, Fab; CH1 (His6/Flag tags, plasmid A) and lambda CL (plasmid E) as for the parent) VH: EVQLVQSGAEVKKPGESLKISCKGSGYSFTSYWIGWVRQMPGKGLEWMGIIYPGDSDTRYSPSFQGQVTISADKSISTAYLQWSSLKASDTAMYYCARRKYSYTYDYFDYWGQGTLVTVSS VL: QTVVTQEPSFSVSPGGTVTLTCGLSSGSVSTSYYPSWYQQTPGQAPRTLIYSTNTRSSGVPDRFSGSILGNKAALTITGAQADDESDYYCVLYMASGISYVFGTGTKVTVL
24.7	Fab VH5-51_IGHD5-18*01>3_IGHJ4*01 G100K/G104T (H:KT) & V3-4_IGLJ1*01 G97A (Fab, V domains shown, Fab; CH1 (His6/Flag tags, plasmid A) and lambda CL (plasmid E) as for the parent) VH: EVQLVQSGAEVKKPGESLKISCKGSGYSFTSYWIGWVRQMPGKGLEWMGIIYPGDSDTRYSPSFQGQVTISADKSISTAYLQWSSLKASDTAMYYCARRKYSYTYDYFDYWGQGTLVTVSS VL: QTVVTQEPSFSVSPGGTVTLTCGLSSGSVSTSYYPSWYQQTPGQAPRTLIYSTNTRSSGVPDRFSGSILGNKAALTITGAQADDESDYYCVLYMGSAISYVFGTGTKVTVL
57.9	Fab VH5-51_IGHD5-18*01>3_IGHJ4*01 G100K/G104T (H:KT) & V3-4_IGLJ1*01 S96A (Fab, V domains shown, Fab; CH1 (His6/Flag tags, plasmid A) and lambda CL (plasmid E) as for the parent) VH: EVQLVQSGAEVKKPGESLKISCKGSGYSFTSYWIGWVRQMPGKGLEWMGIIYPGDSDTRYSPSFQGQVTISADKSISTAYLQWSSLKASDTAMYYCARRKYSYTYDYFDYWGQGTLVTVSS VL: QTVVTQEPSFSVSPGGTVTLTCGLSSGSVSTSYYPSWYQQTPGQAPRTLIYSTNTRSSGVPDRFSGSILGNKAALTITGAQADDESDYYCVLYMGAGISYVFGTGTKVTVL
30.3	Fab VH5-51_IGHD5-18*01>3_IGHJ4*01 G100K/G104T (H:KT) & V3-4_IGLJ1*01 L92A (Fab, V domains shown, Fab; CH1 (His6/Flag tags, plasmid A) and lambda CL (plasmid E) as for the parent) VH: EVQLVQSGAEVKKPGESLKISCKGSGYSFTSYWIGWVRQMPGKGLEWMGIIYPGDSDTRYSPSFQGQVTISADKSISTAYLQWSSLKASDTAMYYCARRKYSYTYDYFDYWGQGTLVTVSS VL: QTVVTQEPSFSVSPGGTVTLTCGLSSGSVSTSYYPSWYQQTPGQAPRTLIYSTNTRSSGVPDRFSGSILGNKAALTITGAQADDESDYYCVAYMGSGISYVFGTGTKVTVL
41	Fab VH5-51_IGHD5-18*01>3_IGHJ4*01 G100K/G104T (H:KT) & V3-4_IGLJ1*01 S99A (Fab, V domains shown, Fab; CH1 (His6/Flag tags, plasmid A) and lambda CL (plasmid E) as for the parent) VH: EVQLVQSGAEVKKPGESLKISCKGSGYSFTSYWIGWVRQMPGKGLEWMGIIYPGDSDTRYSPSFQGQVTISADKSISTAYLQWSSLKASDTAMYYCARRKYSYTYDYFDYWGQGTLVTVSS VL: QTVVTQEPSFSVSPGGTVTLTCGLSSGSVSTSYYPSWYQQTPGQAPRTLIYSTNTRSSGVPDRFSGSILGNKAALTITGAQADDESDYYCVLYMGSGIAYVFGTGTKVTVL
